Laboratory results published in paper PMC4282981 (Journal of immunology (Baltimore, Md. : 1950), 2014).

Biological target: Endogenous SHP-1 (human (endogenous in YTS), UniProt P29350 1-595)
Assay: co-IP

Sequence of Endogenous SHP-1 (P29350 whole entry): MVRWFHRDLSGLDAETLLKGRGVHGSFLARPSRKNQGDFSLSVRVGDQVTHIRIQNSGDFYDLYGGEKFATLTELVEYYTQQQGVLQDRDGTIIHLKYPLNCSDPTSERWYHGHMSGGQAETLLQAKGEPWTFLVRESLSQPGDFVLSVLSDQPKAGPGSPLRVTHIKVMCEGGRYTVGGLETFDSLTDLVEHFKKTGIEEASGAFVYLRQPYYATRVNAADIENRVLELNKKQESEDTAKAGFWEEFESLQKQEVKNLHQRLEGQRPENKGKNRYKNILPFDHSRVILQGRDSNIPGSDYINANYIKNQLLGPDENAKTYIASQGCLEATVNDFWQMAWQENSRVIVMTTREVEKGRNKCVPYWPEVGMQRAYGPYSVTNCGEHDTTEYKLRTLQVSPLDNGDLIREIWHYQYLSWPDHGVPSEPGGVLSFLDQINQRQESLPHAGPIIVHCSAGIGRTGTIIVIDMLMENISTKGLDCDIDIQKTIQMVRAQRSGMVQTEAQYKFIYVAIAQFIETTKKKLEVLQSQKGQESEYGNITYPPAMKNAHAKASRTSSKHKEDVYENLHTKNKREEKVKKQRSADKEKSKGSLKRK

B1: KIR2DL1 H36A mutant tagged with Venus at the C-terminus (receptor, UniProt P43626 22-348, looked up)
chain: HEGVHRKPSLLAHPGRLVKSEETVILQCWSDVMFEAFLLHREGMFNDTLRLIGEHHDGVSKANFSISRMTQDLAGTYRCYGSVTHSPYQVSAPSDPLDIVIIGLYEKPSLSAQLGPTVLAGENVTLSCSSRSSYDMYHLSREGEAHERRLPAGPKVNGTFQADFPLGPATHGGTYRCFGSFHDSPYEWSKSSDPLLVSVTGNPSNSWPSPTEPSSKTGNPRHLHILIGTSVVIILFILLFFLLHRWCSNKKNAAVMDQESAGNRTANSEDSDEQDPQEVTYTQLNHCVFTQRKITRPSQRPKTPPTDIIVYTELPNAESRSKVVSCP
Question: B1 was tested. Which “fold association against 2DL1-WT” value did it give?
Answer: ~4 fold
